According to patent US20140087995A1 (published 2014):
Numbered stars: 1 amine (or outer) side, 2 acyl side, 3 side chain; on linkers, the order of the positions; unused ones are H or OH. Bridge positions count the residues as written; N and C are the ends. Side chains are listed from the residue outwards. Ends that are not written are not given here. * marks the point of attachment. C20 diacid = O=C(O)CCCCCCCCCCCCCCCCCCC(=O)*; γGlu = O=C(O)[C@H](CCC(=O)[*:2])N[*:1]

B1: N^ε1-[(4S)-4-carboxy-4-[[(4S)-4-carboxy-4-(19-carboxynonadecanoylamino)butanoyl]amino]butanoyl]-[Asp14,Arg17,Pro21,Pro27,Asp35]-h-amylin (peptide)
peptide: K([γGlu-γGlu-C20 diacid])CNTATCATQRLADFLRHSSPNFGAIPSSTNVGSDTY-NH2
modifications: disulfide 2-7; N-terminus assumed
SMILES: CC[C@H](C)[C@H](NC(=O)[C@H](C)NC(=O)CNC(=O)[C@H](Cc1ccccc1)NC(=O)[C@H](CC(N)=O)NC(=O)[C@@H]1CCCN1C(=O)[C@H](CO)NC(=O)[C@H](CO)NC(=O)[C@H](Cc1c[nH]cn1)NC(=O)[C@H](CCCNC(=N)N)NC(=O)[C@H](CC(C)C)NC(=O)[C@H](Cc1ccccc1)NC(=O)[C@H](CC(=O)O)NC(=O)[C@H](C)NC(=O)[C@H](CC(C)C)NC(=O)[C@H](CCCNC(=N)N)NC(=O)[C@H](CCC(N)=O)NC(=O)[C@@H](NC(=O)[C@H](C)NC(=O)[C@@H]1CSSC[C@H](NC(=O)[C@@H](N)CCCCNC(=O)CC[C@H](NC(=O)CC[C@H](NC(=O)CCCCCCCCCCCCCCCCCCC(=O)O)C(=O)O)C(=O)O)C(=O)N[C@@H](CC(N)=O)C(=O)N[C@@H]([C@@H](C)O)C(=O)N[C@@H](C)C(=O)N[C@@H]([C@@H](C)O)C(=O)N1)[C@@H](C)O)C(=O)N1CCC[C@H]1C(=O)N[C@@H](CO)C(=O)N[C@@H](CO)C(=O)N[C@H](C(=O)N[C@@H](CC(N)=O)C(=O)N[C@H](C(=O)NCC(=O)N[C@@H](CO)C(=O)N[C@@H](CC(=O)O)C(=O)N[C@H](C(=O)N[C@@H](Cc1ccc(O)cc1)C(N)=O)[C@@H](C)O)C(C)C)[C@@H](C)O
notes: also called 14D, 17R, 21P, 27P, 35D
B2: N^ε1-[(4S)-4-carboxy-4-[[(4S)-4-carboxy-4-(19-carboxynonadecanoylamino)butanoyl]amino]butanoyl]-[Glu14,Arg17,Pro21,Pro27,Arg34,Glu35]-h-amylin (peptide)
peptide: K([γGlu-γGlu-C20 diacid])CNTATCATQRLAEFLRHSSPNFGAIPSSTNVGRETY-NH2
modifications: disulfide 2-7; N-terminus assumed
SMILES: CC[C@H](C)[C@H](NC(=O)[C@H](C)NC(=O)CNC(=O)[C@H](Cc1ccccc1)NC(=O)[C@H](CC(N)=O)NC(=O)[C@@H]1CCCN1C(=O)[C@H](CO)NC(=O)[C@H](CO)NC(=O)[C@H](Cc1c[nH]cn1)NC(=O)[C@H](CCCNC(=N)N)NC(=O)[C@H](CC(C)C)NC(=O)[C@H](Cc1ccccc1)NC(=O)[C@H](CCC(=O)O)NC(=O)[C@H](C)NC(=O)[C@H](CC(C)C)NC(=O)[C@H](CCCNC(=N)N)NC(=O)[C@H](CCC(N)=O)NC(=O)[C@@H](NC(=O)[C@H](C)NC(=O)[C@@H]1CSSC[C@H](NC(=O)[C@@H](N)CCCCNC(=O)CC[C@H](NC(=O)CC[C@H](NC(=O)CCCCCCCCCCCCCCCCCCC(=O)O)C(=O)O)C(=O)O)C(=O)N[C@@H](CC(N)=O)C(=O)N[C@@H]([C@@H](C)O)C(=O)N[C@@H](C)C(=O)N[C@@H]([C@@H](C)O)C(=O)N1)[C@@H](C)O)C(=O)N1CCC[C@H]1C(=O)N[C@@H](CO)C(=O)N[C@@H](CO)C(=O)N[C@H](C(=O)N[C@@H](CC(N)=O)C(=O)N[C@H](C(=O)NCC(=O)N[C@@H](CCCNC(=N)N)C(=O)N[C@@H](CCC(=O)O)C(=O)N[C@H](C(=O)N[C@@H](Cc1ccc(O)cc1)C(N)=O)[C@@H](C)O)C(C)C)[C@@H](C)O
notes: also called 14E, 17R, 21P, 27P, 34R, 35E
B3: N^ε1-[(4S)-4-carboxy-4-[[(4S)-4-carboxy-4-(19-carboxynonadecanoylamino)butanoyl]amino]butanoyl]-[Glu14,Arg17,Pro21,Pro27,His34,Glu35]-h-amylin (peptide)
peptide: K([γGlu-γGlu-C20 diacid])CNTATCATQRLAEFLRHSSPNFGAIPSSTNVGHETY-NH2
modifications: disulfide 2-7; N-terminus assumed
SMILES: CC[C@H](C)[C@H](NC(=O)[C@H](C)NC(=O)CNC(=O)[C@H](Cc1ccccc1)NC(=O)[C@H](CC(N)=O)NC(=O)[C@@H]1CCCN1C(=O)[C@H](CO)NC(=O)[C@H](CO)NC(=O)[C@H](Cc1c[nH]cn1)NC(=O)[C@H](CCCNC(=N)N)NC(=O)[C@H](CC(C)C)NC(=O)[C@H](Cc1ccccc1)NC(=O)[C@H](CCC(=O)O)NC(=O)[C@H](C)NC(=O)[C@H](CC(C)C)NC(=O)[C@H](CCCNC(=N)N)NC(=O)[C@H](CCC(N)=O)NC(=O)[C@@H](NC(=O)[C@H](C)NC(=O)[C@@H]1CSSC[C@H](NC(=O)[C@@H](N)CCCCNC(=O)CC[C@H](NC(=O)CC[C@H](NC(=O)CCCCCCCCCCCCCCCCCCC(=O)O)C(=O)O)C(=O)O)C(=O)N[C@@H](CC(N)=O)C(=O)N[C@@H]([C@@H](C)O)C(=O)N[C@@H](C)C(=O)N[C@@H]([C@@H](C)O)C(=O)N1)[C@@H](C)O)C(=O)N1CCC[C@H]1C(=O)N[C@@H](CO)C(=O)N[C@@H](CO)C(=O)N[C@H](C(=O)N[C@@H](CC(N)=O)C(=O)N[C@H](C(=O)NCC(=O)N[C@@H](Cc1c[nH]cn1)C(=O)N[C@@H](CCC(=O)O)C(=O)N[C@H](C(=O)N[C@@H](Cc1ccc(O)cc1)C(N)=O)[C@@H](C)O)C(C)C)[C@@H](C)O
notes: also called 14E, 17R, 21P, 27P, 34H, 35E
B4: N^ε1-[(4S)-4-carboxy-4-[[(4S)-4-carboxy-4-(19-carboxynonadecanoylamino)butanoyl]amino]butanoyl]-[Glu14,Arg17,Pro21,Pro27,Arg34]-h-amylin (peptide)
peptide: K([γGlu-γGlu-C20 diacid])CNTATCATQRLAEFLRHSSPNFGAIPSSTNVGRNTY-NH2
modifications: disulfide 2-7; N-terminus assumed
SMILES: CC[C@H](C)[C@H](NC(=O)[C@H](C)NC(=O)CNC(=O)[C@H](Cc1ccccc1)NC(=O)[C@H](CC(N)=O)NC(=O)[C@@H]1CCCN1C(=O)[C@H](CO)NC(=O)[C@H](CO)NC(=O)[C@H](Cc1c[nH]cn1)NC(=O)[C@H](CCCNC(=N)N)NC(=O)[C@H](CC(C)C)NC(=O)[C@H](Cc1ccccc1)NC(=O)[C@H](CCC(=O)O)NC(=O)[C@H](C)NC(=O)[C@H](CC(C)C)NC(=O)[C@H](CCCNC(=N)N)NC(=O)[C@H](CCC(N)=O)NC(=O)[C@@H](NC(=O)[C@H](C)NC(=O)[C@@H]1CSSC[C@H](NC(=O)[C@@H](N)CCCCNC(=O)CC[C@H](NC(=O)CC[C@H](NC(=O)CCCCCCCCCCCCCCCCCCC(=O)O)C(=O)O)C(=O)O)C(=O)N[C@@H](CC(N)=O)C(=O)N[C@@H]([C@@H](C)O)C(=O)N[C@@H](C)C(=O)N[C@@H]([C@@H](C)O)C(=O)N1)[C@@H](C)O)C(=O)N1CCC[C@H]1C(=O)N[C@@H](CO)C(=O)N[C@@H](CO)C(=O)N[C@H](C(=O)N[C@@H](CC(N)=O)C(=O)N[C@H](C(=O)NCC(=O)N[C@@H](CCCNC(=N)N)C(=O)N[C@@H](CC(N)=O)C(=O)N[C@H](C(=O)N[C@@H](Cc1ccc(O)cc1)C(N)=O)[C@@H](C)O)C(C)C)[C@@H](C)O
notes: also called 14E, 17R, 21P, 27P, 34R
B5: N^ε1-[(4S)-4-carboxy-4-[[(4S)-4-carboxy-4-(19-carboxynonadecanoylamino)butanoyl]amino]butanoyl]-[Asp14,Arg17,Pro21,Pro27,Pro34,Glu35]-h-amylin (peptide)
peptide: K([γGlu-γGlu-C20 diacid])CNTATCATQRLADFLRHSSPNFGAIPSSTNVGPETY-NH2
modifications: disulfide 2-7; N-terminus assumed
SMILES: CC[C@H](C)[C@H](NC(=O)[C@H](C)NC(=O)CNC(=O)[C@H](Cc1ccccc1)NC(=O)[C@H](CC(N)=O)NC(=O)[C@@H]1CCCN1C(=O)[C@H](CO)NC(=O)[C@H](CO)NC(=O)[C@H](Cc1c[nH]cn1)NC(=O)[C@H](CCCNC(=N)N)NC(=O)[C@H](CC(C)C)NC(=O)[C@H](Cc1ccccc1)NC(=O)[C@H](CC(=O)O)NC(=O)[C@H](C)NC(=O)[C@H](CC(C)C)NC(=O)[C@H](CCCNC(=N)N)NC(=O)[C@H](CCC(N)=O)NC(=O)[C@@H](NC(=O)[C@H](C)NC(=O)[C@@H]1CSSC[C@H](NC(=O)[C@@H](N)CCCCNC(=O)CC[C@H](NC(=O)CC[C@H](NC(=O)CCCCCCCCCCCCCCCCCCC(=O)O)C(=O)O)C(=O)O)C(=O)N[C@@H](CC(N)=O)C(=O)N[C@@H]([C@@H](C)O)C(=O)N[C@@H](C)C(=O)N[C@@H]([C@@H](C)O)C(=O)N1)[C@@H](C)O)C(=O)N1CCC[C@H]1C(=O)N[C@@H](CO)C(=O)N[C@@H](CO)C(=O)N[C@H](C(=O)N[C@@H](CC(N)=O)C(=O)N[C@H](C(=O)NCC(=O)N1CCC[C@H]1C(=O)N[C@@H](CCC(=O)O)C(=O)N[C@H](C(=O)N[C@@H](Cc1ccc(O)cc1)C(N)=O)[C@@H](C)O)C(C)C)[C@@H](C)O
notes: also called 14D, 17R, 21P, 27P, 34P, 35E
B6: N^ε1-[(4S)-4-carboxy-4-[[(4S)-4-carboxy-4-(19-carboxynonadecanoylamino)butanoyl]amino]butanoyl]-[Glu14,Arg17,Pro21,Pro27,His34]-h-amylin (peptide)
peptide: K([γGlu-γGlu-C20 diacid])CNTATCATQRLAEFLRHSSPNFGAIPSSTNVGHNTY-NH2
modifications: disulfide 2-7; N-terminus assumed
SMILES: CC[C@H](C)[C@H](NC(=O)[C@H](C)NC(=O)CNC(=O)[C@H](Cc1ccccc1)NC(=O)[C@H](CC(N)=O)NC(=O)[C@@H]1CCCN1C(=O)[C@H](CO)NC(=O)[C@H](CO)NC(=O)[C@H](Cc1c[nH]cn1)NC(=O)[C@H](CCCNC(=N)N)NC(=O)[C@H](CC(C)C)NC(=O)[C@H](Cc1ccccc1)NC(=O)[C@H](CCC(=O)O)NC(=O)[C@H](C)NC(=O)[C@H](CC(C)C)NC(=O)[C@H](CCCNC(=N)N)NC(=O)[C@H](CCC(N)=O)NC(=O)[C@@H](NC(=O)[C@H](C)NC(=O)[C@@H]1CSSC[C@H](NC(=O)[C@@H](N)CCCCNC(=O)CC[C@H](NC(=O)CC[C@H](NC(=O)CCCCCCCCCCCCCCCCCCC(=O)O)C(=O)O)C(=O)O)C(=O)N[C@@H](CC(N)=O)C(=O)N[C@@H]([C@@H](C)O)C(=O)N[C@@H](C)C(=O)N[C@@H]([C@@H](C)O)C(=O)N1)[C@@H](C)O)C(=O)N1CCC[C@H]1C(=O)N[C@@H](CO)C(=O)N[C@@H](CO)C(=O)N[C@H](C(=O)N[C@@H](CC(N)=O)C(=O)N[C@H](C(=O)NCC(=O)N[C@@H](Cc1c[nH]cn1)C(=O)N[C@@H](CC(N)=O)C(=O)N[C@H](C(=O)N[C@@H](Cc1ccc(O)cc1)C(N)=O)[C@@H](C)O)C(C)C)[C@@H](C)O
notes: also called 14E, 17R, 21P, 27P, 34H

These binders were tested against T1, human amylin receptor (human, UniProt P30988 25-474; O60896 24-148, limits assumed) (assay: SPA competition binding, displacement of 125I-rat amylin from membranes with human amylin 3(a) receptor (Assay V)).
T1 construct: whole, on cells; Calcitonin receptor plus RAMP-3 gives the amylin 3(a) receptor; membranes of Amylin 3(a)/CRE-luc cells were used; also called hAmylin-R; hAmylinR
T1 sequence (looked up) 1: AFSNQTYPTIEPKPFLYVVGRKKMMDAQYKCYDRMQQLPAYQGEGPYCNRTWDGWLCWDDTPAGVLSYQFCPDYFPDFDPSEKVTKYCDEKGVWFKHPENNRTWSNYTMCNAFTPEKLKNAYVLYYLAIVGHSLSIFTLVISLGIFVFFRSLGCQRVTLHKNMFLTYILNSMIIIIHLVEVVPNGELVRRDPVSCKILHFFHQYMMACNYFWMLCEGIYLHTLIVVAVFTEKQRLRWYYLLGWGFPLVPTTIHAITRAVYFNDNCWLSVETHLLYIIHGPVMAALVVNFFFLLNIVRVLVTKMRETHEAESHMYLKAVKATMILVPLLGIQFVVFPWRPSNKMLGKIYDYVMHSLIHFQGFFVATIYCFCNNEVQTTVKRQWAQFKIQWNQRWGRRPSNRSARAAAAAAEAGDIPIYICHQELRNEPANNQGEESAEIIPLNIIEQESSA
T1 sequence (looked up) 2: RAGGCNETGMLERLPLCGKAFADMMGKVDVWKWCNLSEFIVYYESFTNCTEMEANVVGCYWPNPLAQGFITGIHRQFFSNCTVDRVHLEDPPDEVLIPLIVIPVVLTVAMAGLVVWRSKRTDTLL
How it was run: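 SPA beads with BHK Amylin 3(a)/CRE-luc cell membranes (35 ng/μL final) in 50 mM Hepes pH 7.4, 1 mM CaCl2, 5 mM MgCl₂, 0.1% OA, 0.02% Tween20.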

| Binder | IC50 |
| --- | --- |
| B1 | 0.411 nM |
| B2 | 0.957 nM |
| B3 | 0.525 nM |
| B4 | 0.75 nM |
| B5 | 0.172 nM |
| B6 | 0.633 nM |
